This is an account of results in patent US20250145733A1 (University of California, published 2025).

The target in experiment [1] is T1, human ALPPL2 on tumor cells (M28, SKOV3, AsPC1) (human, UniProt P10696 20-503).
T1 construct: whole, on cells; also called ALPPL2 expressing tumor cells; M28 cells
The experiment in a line: apparent KD, flow cytometry on living M28 cells; M28 mesothelioma cells, flow cytometry. A general note: In flow cytometry, cells or beads pass a laser one at a time.

The target in experiment [2] is T2, human CD3 epsilon (human, UniProt P07766 23-126). The experiment in a line: biolayer interferometry, tips loaded with human CD3 epsilon, 100 nM DSDbody as analyte. On the procedure: (§1) FIG. 13. Binding of SYLY×CD3 DSDbody to human and cynomolgus monkey CD3 epsilon measured by biolayer interferometry. Tips were loaded with either human or cynomolgus monkey CD3 epsilon, followed by an association step with 100 nM SYLY×CD3 DSDbody and then a dissociation step.
T2 sequence (P07766 23-126 limits assumed): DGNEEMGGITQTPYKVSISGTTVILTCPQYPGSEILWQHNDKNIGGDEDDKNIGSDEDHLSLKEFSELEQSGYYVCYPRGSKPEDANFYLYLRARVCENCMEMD
(§2) The DSDbody was also evaluated by biolayer interferometry for cross-species binding to both human and cynomolgus monkey CD3 epsilon chains.

Experiment [3] addresses T1, human ALPPL2 on tumor cells (M28, …). The experiment in a line: flow cytometry on AsPC1 cells, anti-hexahistidine detection, curve fit of MFI; AsPC1 pancreatic cancer cells, flow cytometry. On the procedure:
The bispecific (ALPPL2×CD3) SYLY DSDBody was incubated with AsPC1 cells at room temperature for 1 h, washed and further incubated with anti-tag (hexahistidine (SEQ ID NO: 102)) antibodies for detection by flow cytometry. […] See, FIG. 24.

Experiment [4] deals with T2, human CD3 epsilon. The experiment in a line: BLI; tips loaded with human CD3 epsilon, association with 100 nM SYLYxCD3 DSDbody, then dissociation. The method, then:
as §1, §2
Background: BLI is a label-free optical method that tracks binding on a fibre tip over time.

Experiment [5] addresses T3, human ALPI-Fc (human, UniProt P09923 20-503).
T3 construct: not shown: Fc part not described
T3 sequence (looked up): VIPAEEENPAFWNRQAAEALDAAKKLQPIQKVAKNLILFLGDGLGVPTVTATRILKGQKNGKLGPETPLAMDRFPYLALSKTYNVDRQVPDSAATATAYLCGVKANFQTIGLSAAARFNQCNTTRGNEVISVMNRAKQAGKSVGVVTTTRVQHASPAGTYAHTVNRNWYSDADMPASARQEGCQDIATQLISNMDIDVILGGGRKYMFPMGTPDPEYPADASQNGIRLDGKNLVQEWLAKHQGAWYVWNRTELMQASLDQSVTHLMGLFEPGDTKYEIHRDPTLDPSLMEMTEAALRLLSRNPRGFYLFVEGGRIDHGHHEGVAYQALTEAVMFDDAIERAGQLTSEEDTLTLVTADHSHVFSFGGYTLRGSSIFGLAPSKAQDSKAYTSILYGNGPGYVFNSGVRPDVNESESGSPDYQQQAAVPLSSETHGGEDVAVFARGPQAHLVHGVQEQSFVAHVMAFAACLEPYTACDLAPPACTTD
The experiment in a line: BLI; tips loaded with human ALPI-Fc, association with 100 nM SYLYxCD3 DSDbody, then dissociation. The method, then:
(§3) FIG. 12. Binding of SYLY×CD3 DSDbody to human ALPP2 and ALPI measured by biolayer interferometry. Tips were loaded with either human ALPPL2-Fc or human ALPI-Fc, followed by an association step with 100 nM SYLY×CD3 DSDbody and then a dissociation step. Calculated affinites are shown in the graph. ND: not determined.
as §2

The target in experiment [6] is T1, human ALPPL2 on tumor cells (M28, …). The experiment is described as follows: cell-based or functional assay.
Experiment [7] concerns the target ALPP on HEK293 cells (UniProt P05187 23-506, limits assumed). The experiment is described as follows: cell-based or functional assay.
The target of experiment [8] is T4, human ALPPL2-Fc (human, UniProt P10696 20-503).
T4 construct: also called ALPG; not shown: Fc part not described
T4 sequence (P10696 20-503): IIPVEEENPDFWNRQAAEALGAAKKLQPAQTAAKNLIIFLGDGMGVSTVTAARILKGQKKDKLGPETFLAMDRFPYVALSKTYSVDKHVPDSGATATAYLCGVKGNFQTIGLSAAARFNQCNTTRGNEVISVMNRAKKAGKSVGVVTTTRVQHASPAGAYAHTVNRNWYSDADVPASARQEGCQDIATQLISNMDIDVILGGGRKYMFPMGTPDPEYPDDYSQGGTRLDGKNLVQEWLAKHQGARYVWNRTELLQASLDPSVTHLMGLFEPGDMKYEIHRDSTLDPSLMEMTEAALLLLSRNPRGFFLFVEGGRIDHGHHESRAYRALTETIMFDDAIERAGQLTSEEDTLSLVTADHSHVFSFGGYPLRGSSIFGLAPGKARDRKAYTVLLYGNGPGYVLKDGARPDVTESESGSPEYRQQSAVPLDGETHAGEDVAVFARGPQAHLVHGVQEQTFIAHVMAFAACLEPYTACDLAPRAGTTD
The experiment in a line: BLI; tips loaded with human ALPPL2-Fc, association with 100 nM SYLYxCD3 DSDbody, then dissociation. On the procedure:
as §3, §2

Experiment [9] has as its target T4, human ALPPL2-Fc. The experiment in a line: biolayer interferometry, tips loaded with human ALPPL2-Fc, 100 nM DSDbody as analyte. On the procedure:
as §3, §2

The target in experiment [10] is T1, human ALPPL2 on tumor cells (M28, …). The experiment is described as follows: apparent KD, flow cytometry on living SKOV3 cells. The method, then: FIG. 16. Binding of the SYLY-based bispecific (DSDbody) to living SKOV3 cells. SKOV3 cells were incubated with Fabs for 1 h at RT and binding was analyzed by flow cytometry. […] There is no binding by the control bispecific YSC10×CD3 DSDbody that is built on a non-binding isotype control antibody YSC10.
In addition to mesothelioma cells, binding of the SYLY-based bispecific ALPPL2×CD3 DSDbody was also studied on the ovarian cancer cell line SKOV3. […] No binding was detected by the control bispecific YSC10×CD3 that is built on a non-binding isotype control antibody YSC10. For comparison, a reference DSDbody constructed from the parental FYIA was also studied on SKOV3 cells using flow cytometry.

In experiment [11] the target is T5, cynomolgus monkey CD3 epsilon (cynomolgus monkey, UniProt Q95LI5 22-117).
T5 sequence (looked up): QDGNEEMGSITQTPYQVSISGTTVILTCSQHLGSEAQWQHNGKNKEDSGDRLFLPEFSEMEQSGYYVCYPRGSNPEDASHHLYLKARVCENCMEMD
The experiment in a line: BLI; tips loaded with cynomolgus monkey CD3 epsilon, association with 100 nM SYLYxCD3 DSDbody, then dissociation. The method, then: as §1, §2

In experiment [12] the target is human ALPPL2 on tumor cells (M28, SKOV3, AsPC1) (human) (UniProt P10696). The experiment in a line: apparent KD, flow cytometry, Fab on living M28 cells.
human ALPPL2 on tumor cells (M28, SKOV3, AsPC1) (human), sequence (P10696 20-503): as the sequence (P10696 20-503) above
Experiment [13] deals with T1, human ALPPL2 on tumor cells (M28, …). The experiment is described as above. On the procedure:
(§4) FIG. 2. Binding of FYIA, FYIA_germ, and FYIA_germopt Fabs to living M28 cells. M28 cells were incubated with Fabs for 1 h at RT and binding was analyzed by flow cytometry.
FIG. 4. Additional Fabs (FYIA_germ_SY and FYIA_germ_6-6) were also studied along with FYIA, FYIA_germ, and FYIA_germopt Fabs for binding to living M28 cells. M28 cells were incubated with Fabs for 1 h at RT and binding was analyzed by flow cytometry.

Experiment [14] has as its target T4, human ALPPL2-Fc. The experiment in a line: biolayer interferometry, tips loaded with Fab, 5 nM human ALPPL2-Fc as analyte. The method, then: FIG. 1. Biolayer interferometry (BLI) measurements of the affinity of FYIA, FYIA_germ, FYIA_germ_6-6, and FYIA_germopt (aka SYLY) Fabs for human ALPPL2. Tips were loaded with Fabs, followed by an association step with 5 nM human ALPPL2-Fc then a dissociation step.

The target in experiment [15] is T6, human ALPI on HEK293 cells (human, UniProt P09923 20-503).
T6 construct: whole, on cells; also called HEK293-ALPI cells
T6 sequence (looked up): T3 sequence (looked up)
The experiment is described as follows: flow cytometry on HEK293 cells stably transfected with human ALPI, 1 h at RT. On the procedure: FIG. 3. Binding of FYIA, FYIA_germ, and FYIA_germopt Fabs to HEK293 cells stably transfected with human ALPI. HEK293-ALPI cells were incubated with Fabs for 1 h at RT and binding was analyzed by flow cytometry. No detectable binding was found. An ALPI-binding Fab, M25AD, was included in the study as a positive control.

The target of experiment [16] is T1, human ALPPL2 on tumor cells (M28, …). The experiment is described as follows: cell binding study, monovalent Fab on M28 cells, flow cytometry. On the procedure: as §4

Substitutions are numbered along the chain they refer to.

T1 sequence (P10696 20-503): as the sequence (P10696 20-503) above
ALPP on HEK293 cells, sequence (P05187 23-506 limits assumed): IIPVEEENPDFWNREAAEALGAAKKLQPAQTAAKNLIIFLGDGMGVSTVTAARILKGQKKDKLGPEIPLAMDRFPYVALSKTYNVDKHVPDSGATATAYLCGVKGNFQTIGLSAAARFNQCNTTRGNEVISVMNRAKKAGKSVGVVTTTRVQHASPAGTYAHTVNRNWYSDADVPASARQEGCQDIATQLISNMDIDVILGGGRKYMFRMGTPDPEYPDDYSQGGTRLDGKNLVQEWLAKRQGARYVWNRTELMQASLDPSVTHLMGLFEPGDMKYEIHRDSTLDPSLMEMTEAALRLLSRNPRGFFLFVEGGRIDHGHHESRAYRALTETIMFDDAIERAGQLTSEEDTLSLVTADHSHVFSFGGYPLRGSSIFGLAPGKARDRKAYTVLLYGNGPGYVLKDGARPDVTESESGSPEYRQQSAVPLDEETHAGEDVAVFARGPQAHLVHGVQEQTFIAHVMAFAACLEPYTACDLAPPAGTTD

B1: SYLY-based bispecific ALPPL2×CD3 DSDbody (bispecific antibody)
chain 1: EVQLVESGGGLVQPGGSLRLSCAASGFTFNTYAMNWVRQAPGKGLEWVGRIRSKYNNYATYYADSVKDRFTISRDDSKNSLYLQMNSLTACDTAVYYCVRHGNFGNSYVSWFAYWGQGTLVTVSSGGGGSQSALTQPASVSGSPGQSITISCTGTSSDVGGYNYVSWYQQHPGKAPKLMIYDVTYRPSGVSNRFSGSKSGNTASLTISGLQAEDEADYYCSSYTVATTLVVFGGGTKLTVLASTKGPSVFPLAPSSKSTSGGTAALGCLVKDYFPEPVTVSWNSGALTSGVHTFPAVLQSSGLYSLSSVVTVPSSSLGTQTYICNVNHKPSNTKVDKKVEPKSCHHHHHH
chain 2: EVQLVESGGGLVQPGGSLRLSCAASGFTFSAYAMHWVRQAPGKGLEWVAVISYEGYNAYYADSVKGRFTISRDNSKNTLYLQMNSLTACDTAVYYCAKEGDYSRWAYDYWGRGTLVTVSSGGGGSDIQMTQSPSSLSASVGDRVTITCRSSTGAVTTSNYANWVQQKPGKAPKGLIGGTNKRAPGVPSRFSGSLIGDKATLTISSLQPEDFATYYCALWYSNLWVFGQGTKVEIKRTVAAPSVFIFPPSDEQLKSGTASVVCLLNNFYPREAKVQWKVDNALQSGNSQESVTEQDSKDSTYSLSSTLTLSKADYEKHKVYACEVTHQGLSSPVTKSFNRGEC
notes: Dually stabilized diabody: inter-chain disulfide link and CH1/CL pairing; Anti-CD3 arm is humanized SP34 (hSP34k2); also called SYLY×CD3 DSDbody; SYLY DSDbody
Consider B1, for which the Kd in experiment [1] was 2.4 nM; in experiment [2] it was 20 nM; in experiment [3], 4.35 nM; in experiment [4], 25 nM; in [8], 0.2 nM; in experiment [9] it was roughly 0.2 nM. Besides, the Kd was 0.19 nM in experiment [10] and 18 nM in experiment [11]. For the same molecule, in experiment [5], the binding result is on record as “no binding (tested: 100 nM)”. In addition, the “EC50 of killing of SKOV3 cells with human PBMC (E:T 10:1, 96h, Calcein AM)” value in experiment [6] was 0.3 pM. In addition, the “EC50 of killing of HEK293-ALPP cells with human PBMC (E:T 10:1, 72h, Calcein AM)” value in experiment [7] is 8.5 pM.

B2: FYIA_germ_SY Fab (Fab, part only; not given: light variable domain, not tied by name, V domains shown, part only)
VH: EVQLVESGGGLVQPGGSLRLSCAASGFTFSAYAMHWVRQAPGKGLEWVAVISYEGYNAYYADSVKGRFTISRDNSKNTLYLQMNSLRAEDTAVYYCAKEGDYSRWAYDLWGRGTLVTVSS
Consider B2, for which the Kd in [12] came to 1.27 nM.

B3: FYIA_germ Fab (Fab, V domains shown)
VH: B2 VH with A31S, E54D, Y56S, A58K, Y102S, A106S
VL: QSALTQPASVSGSPGQSITISCTGTSSDVGGYNYVSWYQQHPGKAPKLMIYDVTNRPSGVSNRFSGSKSGNTASLTISGLQAEDEADYYCSSYTIASTLVVFGGGTKLTVL
notes: Tested as monovalent Fab
As for B3, the Kd in experiment [13] was 69.4 nM; in experiment [14] it was 13 nM. Moreover, the binding result in experiment [15] was “no binding (tested: 10000 nM)”.

B4: FYIA_germopt Fab (Fab, V domains shown)
VH: B2 VH with L109Y
VL: B3 VL with R56Y, I95V, S97T
notes: Tested as monovalent Fab; also called SYLY
With B4, in experiment [16], the “fold improvement over the parental FYIA” value is greater than 30 fold. The Kd is 0.967 nM in [13] and 0.19 nM in experiment [14]. In addition, in experiment [15], the binding result is recorded as “no binding (tested: 10000 nM)”.
